From publication PMC11555649, “Yop1 stability and membrane curvature generation propensity are controlled by its oligomerisation interface” (Biochemical Journal, 2024)

How the values were obtained:
[1] = target: the molecule itself; assay: SEC-MALS; self-association; 100 µl at 1-1.4 mg/ml on Superdex 200 10/300GL; 20 mM HEPES pH 7.5, 150 mM NaCl, 5% glycerol; protein in DDM micelles, protein and detergent masses separated
[2] = target: the molecule itself; assay: native gel or EMSA; Blue native PAGE, NativePAGE 4-16% Bis-Tris gel, ~0.8 mg/ml protein in DDM micelles, 150 V, 4°C; self-association

B1: Yop1 (wildtype, full length, Saccharomyces cerevisiae) (natural protein, UniProt Q12402 1-180, looked up)
chain: MSEYASSIHSQMKQFDTKYSGNRILQQLENKTNLPKSYLVAGLGFAYLLLIFINVGGVGEILSNFAGFVLPAYLSLVALKTPTSTDDTQLLTYWIVFSFLSVIEFWSKAILYLIPFYWFLKTVFLIYIALPQTGGARMIYQKIVAPLTDRYILRDVSKTEKDEIRASVNEASKATGASVH
notes: Yop1, Saccharomyces cerevisiae, UniProt Q12402, full length gene in pCold I; Integral membrane protein, kept in DDM detergent micelles; tags removed with TEV protease; also called WT; wildtype Yop1; source: E. coli C43, purified (Strep-Tactin, TEV cleavage, His-tag resin flow-through, SEC) in DDM; not shown: (His)9, N-terminal, cleaved; Twin-Strep-tag, N-terminal, cleaved
[1]
  stoichiometry N: 2

B2: Yop1 P71L variant (natural protein, Saccharomyces cerevisiae, UniProt Q12402 1-180, looked up)
chain: MSEYASSIHSQMKQFDTKYSGNRILQQLENKTNLPKSYLVAGLGFAYLLLIFINVGGVGEILSNFAGFVLLAYLSLVALKTPTSTDDTQLLTYWIVFSFLSVIEFWSKAILYLIPFYWFLKTVFLIYIALPQTGGARMIYQKIVAPLTDRYILRDVSKTEKDEIRASVNEASKATGASVH
notes: Yop1, Saccharomyces cerevisiae, UniProt Q12402, full length gene in pCold I, with P71L; Homologous to the REEP1 SPG31 mutation P19L; prone to aggregation in preparative SEC; source: E. coli C43, purified (Strep-Tactin, TEV cleavage, His-tag resin flow-through, SEC) in DDM; not shown: (His)9, N-terminal, cleaved; Twin-Strep-tag, N-terminal, cleaved
[2]
  stoichiometry N: 2

B3: Yop1 A72E variant (natural protein, Saccharomyces cerevisiae, UniProt Q12402 1-180, looked up)
chain: MSEYASSIHSQMKQFDTKYSGNRILQQLENKTNLPKSYLVAGLGFAYLLLIFINVGGVGEILSNFAGFVLPEYLSLVALKTPTSTDDTQLLTYWIVFSFLSVIEFWSKAILYLIPFYWFLKTVFLIYIALPQTGGARMIYQKIVAPLTDRYILRDVSKTEKDEIRASVNEASKATGASVH
notes: Yop1, Saccharomyces cerevisiae, UniProt Q12402, full length gene in pCold I, with A72E; Homologous to the REEP1 SPG31 mutation A20E; source: E. coli C43, purified (Strep-Tactin, TEV cleavage, His-tag resin flow-through, SEC) in DDM; not shown: (His)9, N-terminal, cleaved; Twin-Strep-tag, N-terminal, cleaved
[1]
  stoichiometry N: 2

B4: Yop1 S75F variant (natural protein, Saccharomyces cerevisiae, UniProt Q12402 1-180, looked up)
chain: MSEYASSIHSQMKQFDTKYSGNRILQQLENKTNLPKSYLVAGLGFAYLLLIFINVGGVGEILSNFAGFVLPAYLFLVALKTPTSTDDTQLLTYWIVFSFLSVIEFWSKAILYLIPFYWFLKTVFLIYIALPQTGGARMIYQKIVAPLTDRYILRDVSKTEKDEIRASVNEASKATGASVH
notes: Yop1, Saccharomyces cerevisiae, UniProt Q12402, full length gene in pCold I, with S75F; Homologous to the REEP1 SPG31 mutation S23F; source: E. coli C43, purified (Strep-Tactin, TEV cleavage, His-tag resin flow-through, SEC) in DDM; not shown: (His)9, N-terminal, cleaved; Twin-Strep-tag, N-terminal, cleaved
[2]
  stoichiometry N: 2
